Laboratory results reported in PMC5165034 (Frontiers in Immunology, 2016).

Molecular target: influenza virus X-31 hemagglutinin (HA) (Influenza A virus X-31 (H3N2; HA of …, UniProt P03437, strain)

Row | Binder | binding result
1 | 4A12 (VHH) VHH: EVQLVESGGGLVKPGGSLRLSCAASGFTFSDYYMSWIRQAPGKGLEWVSYISSSGNTIYYADSVKGRFTISRDNAKNSLYLQMNSLRAEDTAVYYCARDRLGMVRPLHYWGQGTLVTVSS | binds
2 | 2E6 (VHH) VHH: EVQLVESGGGLVKPGGSLRLSCAASGFTFSDYYMSWIRQAPGKGLEWVSYISGSGNTIYYADSVKGRFTISRDNAKNSLYLQMNSLRAEDTAVYYCARDRLGMVRPLHYWGQGTLVTVSS | binds
3 | 2F5 (VHH) VHH: EVQLVESGGDLVEPGGSLRLSCAASGFTFSDYYMSWIRQAPGKGLEWVSYISGSGNTIYYADSVKGRFTISRDNAKNSLYLQMNSLRAEDTAVYYCARDRLGMVRPLHYWGQGTLVTVSS | binds
4 | 3A6 (VHH) VHH: EVQLVESGGGLVKPGGSLRLSCAASGFTFSDYYMSWIRQAPGKGLEWVSYISGSGNTIYYADSVKGRFTISRDNAKNSLYLQMNSLRAEDTAVYYCARDRLGMDRPLHYWGQGTLVTVSS | binds
5 | 3B8 (VHH) VHH: EVQLVESGGGLVKPGGSLRLSCAASGFTFSDYYMSWIRQAPGKGLEWVSYISGSGNTIYYADSVRGRFTISRDNAKNSLYLQMNSLRAEDTALYYCARDRAGMVRGPHYWGQGTLVTVSS | binds
6 | 4F5 (VHH) VHH: EVQLVESGGGLVKPGGSLRLSCAASGFTFSDYYMSWIRQAPGKGLEWVSYISSSGSTIYYADSVKGRFTISRDNAKNSLYLQMNSLRAEDTAVYYCARRRSLTVGAPTYWGQGTLVTVSS | binds
7 | 2D1 (VHH) VHH: EVQLVESGGGLVKPGGSLRLSCAASGFTFSDYYMSWIRQAPGKGLEWVSYISSSGSTIYYADSVRGRFTISRDNAKDSLYLQMNSLRAEDTAVYYCARRRSLTVGAPTYWGQGTLVTVSS | binds
8 | 2B3 (VHH) VHH: EVQLVESGGGLVKPGGSLRLSCAASGFTFSDYYMSWIRQAPGKGLEWVSYISSSGSIIYYADSVKGRFTISRDNAKDSLYLQMNSLRAEDTAVYYCARRRSLTVGAPTYWGQGTLVTVSS | binds
9 | 2E2 (VHH) VHH: EVQLVESGGGLVKPGGSLRLSCEASGFTFSDYYMSWIRQAPGKGLEWVSYISSSGSTIYYADSVKGRFTISRDNAKDSLYLQMNSLRAEDTAVYYCARRRSLTVGAPTYWGQGTLVTVSS | binds
10 | 4D3 (VHH) VHH: EVQLVESGGGLVKPGGSLRLSCAASGFTFSDYYMSWIRQAPGKGLEWVSYISSSGSTLYYADSVRGRFTISRDNAKDSLYLQMNSLRAEDTAVYYCARRRSLTVGAPTYWGQGTLVTVSS | binds
11 | 1B1 (VHH) VHH: EVQLVESGGGLVKSGGSLRLSCAASGFTFSDYYMSWIRQAPGKGLEWVSYISSSGSTIYYADSVKGRFTISRDNAKNSLYLQMNSLRAEDTAVYYCARGISMARDYWGQGTLVTVSS | binds
12 | 1C8 (VHH) VHH: EVQLVESGGGLVKPGGSLRLSCAASGFTFSDYYMSWIRQAPGKGLEWVSYISSSGSTIYYADSVKGRFTISRDNAKNSLYLQMNSLRAEDTAVYYCARGISMVGDNWGQGTLVTVSS | binds
13 | 7H12 (VHH) VHH: EVQLVESGGGLVKPGGSLRLSCAASGFTFSDYYMSWIRQAPGKGLEWVSYISSSGSTIYYADSVKGRFTISRDNAKNSLYLQMNSLRAEDTAVYYCARGISMVGDYWGQGTLVTVSS | binds
14 | 1C4 (VHH) VHH: EVQLVESGGGLVKPGGSLRLSCAASGFTFSDYYMSWIRQAPGKGLEWVSYISSSGSTIYYADSVKGRFTISRDNAKNSLYLQMNSLRAEDTAVYYCARGISMAGDSWGQGTLVTVSS | binds
15 | 1A7 (VHH) VHH: EVQLVESGGGLVKPGGSLRLSCAASGFTFSDYYMSWIRQAPGKGLEWVSYISSSGSTIYYADSVKGRFTISRDNAKNSLYLQMNSLRAEDTAVYYCARGISMTGDYWGQGTLVNVSS | binds
16 | 1D10 (VHH) VHH: EVQLVESGGGLVKPGGSLRLSCAASGFTFSDYYMSWIRQAPGKGLEWVSYISSGGDTIYYADSVKGRFTISRDNAKNSLYLQMNSLRAEDTAVYYCARGISMTGDYWGQGTLVNVSS | binds

Row | Binder | binding result
17 | 4D7 (VHH) VHH: EVQLVEFGGGLVKPGGSLRLSCAASGFTFSDYYMSWIRQAPGKGLEWVSYISSSGSNIYYADSVKGRFTITRDNAKNSLYLQMNSLRAEDTAVYYCARGISMTGDYWGQGTQVTVSS | binds
18 | 1C9 (VHH) VHH: EVQLVESGGGLVKPGGSLRLSCAASGFTFSDYYMSWIRQAPGKGLEWVSYISSSGSTIYYADSVKGRFTISRDNAKNSLYLQMNSLRAEDTAVYYCAKGISTTGDYWGQGALVSVSS | binds
19 | 4E8 (VHH) VHH: EVQLVESGGGLVKPGGSLRLSCAASGFTFSDYYMSWIRQAPGKGLEWVSYISSSGSTIYYADSVKGRFTISRDNAKNSLYLQMNSLRAEDTAVYYCARGISLTGDYWGQGTLVTVSS | binds
20 | 1F10 (VHH) VHH: EVQLVESGGGLVKPGGSLRLSCAASGFTFSDYYMSWIRQAPGKGLEWVSYISSSGSTIYYADSVKGRFTISRDNAKNSLYLQMSSLRAEDTAVYYCARGISLTGTDWGQGTLVTVSS | binds
21 | 4H7 (VHH) VHH: EVQLVESGGGLVKPGGSLRLSCAASGFTFSDYYMSWIRQAPGKGLEWVSYISSSGSTIYYADSVKGRFTISRDNAKNSLYLQMNSLRAEDTAVYYCARGISVTGDSWGQGTLVTVSS | binds
22 | 1H11 (VHH) VHH: EVQLVESGGGLVKPGGSLRLSCAASGFTFSDYYMSWIRRAPGKGLEWVSYISSSGSNIYYVDSVKGRFTISRDNAKNSLYLQMNSLRAEDTAVYYCARGIAMTGDYWGQGTQVTVTS | binds
23 | 1H4 (VHH) VHH: EVQLVESGGGLVKPGGSLRLSCAASGFTFSDYYMSWIRQAPGKGLEWVSYISSSGSTIYYADSVKGRFTISRDNAKNSLYLQMNSLRAEDTAVYYCARGIAMVEDSWGQGTLVTVSS | binds
24 | 1F12 (VHH) VHH: EVQLVESGGGLVKPGGSLRLSCAASGFTFSDYYMSWIRQAPGKGLEWVSYISSSGSNIYYADSVKGRFTISRDNAKNSLYLQMNSLRAEDTAVYYCARGIAVAEDVWGQGTTVTVSS | binds
25 | 1F1 (VHH) VHH: EVQLVESGGGLVKPGGSLRLSCAASGFTFSDYYMSWIRQAPGKGLEWVSYISSSGSTIYYADSVKGRFTISRDNAKNSLYLQMNSLRAEDTAVYYCARGVKLTEDNWGQGTLVTVSS | binds
26 | 3A5 (VHH) VHH: EVQLVESGGGLVKPGGSLRLSCAASGFIFSDYYMSWIRQAPGKGLEWISYISSSGDSIYYADSVKGRFTISRDDAKNSLSLQMNSLRAEDTAVYYCARGWFGESHYSDFWGQGTLVTVSS | binds
27 | 1D8 (VHH) VHH: EVQLVESGGGLVKPGGSLRLSCAASGFTFSDYYMSWIRQAPGKGLEWVSYISSSGSTIYYADSVKGRFTISRDNAKNSLYLQMNSLRAEDTAVYYCARGPPFDYWGQGTLVTVSS | binds
28 | 6F7 (VHH) VHH: EVQLVESGGGLVKPGGSLRLSCAASGFTFSDYYMSWIRQAPGKGLEWVSYISSSGRTIYYADSVKGRFTISRDNAKNSLYLQMNSLRAEDTAVYYCARGGIAVAGTTRHYSDYWGQGTLVTVSS | binds
29 | 2B5 (VHH) VHH: EVQLVESGGGLVKPGGSLRLSCAASGFTFSDYYMTWIRQTPGKGLEWVSYISDDNNTIYYADSVKGRFTISRDNAKNSLYLQMNSLRAEDTAVYYCARDGYFGELPGFDYWGQGTLVTVSS | binds
30 | 4F9 (VHH) VHH: EVQLVESGGGLVKPGGSLRLSCAASGFTFSDYYMSWIRQAPGKGLEWVSYISSSGSTIYYADSVKGRFTISRDNAKNSLYLQMNSLRAEDTAVYYCARDLVGATDFDYWGQGTLVTVSS | binds
31 | 4G9 (VHH) VHH: EVQLLESGGGLVQRGGSLRLSCAASGFTFSSYAMSWVRQAPGKGLEWVSAISGSGGSTHYADSVKGRFTISRDNSKNTLYLQMNSLRAEDTAVYYCAKKGDRGYFFDYWGQGTLVTVSS | binds
32 | 3C8 (VHH) VHH: EVQLLESGGGLVQPGGSLRLSCAASGFTFSSYAMSWVRQAPGKGLEWVSAITGSGSSTYYADSVKGRFTISRDNSKNTLYLQMNSLRAEDTAVYYCAKDRPYGSGSYKYGMDVGGQGTTVTVSS | binds
